How the values were obtained:
Details in all cases: 50 mM citrate buffer, 10% (v/v) DMSO
[1] = tested on: COc1cc(-c2oc3cc(O)cc(O)c3c(=O)c2O[C@@H]2O[C@H](CO[C@@H]3O[C@@H](C)[C@H](O)[C@@H](O)[C@H]3O)[C@@H](O)[C@H](O)[C@H]2O)ccc1O; test: purified protein
[2] = tested on: COc1ccc([C@@H]2CC(=O)c3c(O)cc(O[C@@H]4O[C@H](CO[C@@H]5O[C@@H](C)[C@H](O)[C@@H](O)[C@H]5O)[C@@H](O)[C@H](O)[C@H]4O)cc3O2)cc1O; test: purified protein
[3] = tested on: C[C@@H]1O[C@@H](OC[C@H]2O[C@@H](Oc3c(-c4ccc(O)c(O)c4)oc4cc(O)cc(O)c4c3=O)[C@H](O)[C@@H](O)[C@@H]2O)[C@H](O)[C@H](O)[C@H]1O; test: purified protein
[4] = tested on: O=c1c(O[C@@H]2O[C@H](CO)[C@@H](O)[C@H](O)[C@H]2O)c(-c2ccc(O)c(O)c2)oc2cc(O)cc(O)c12; test: purified protein
[5] = substrate: COc1cc(-c2oc3cc(O)cc(O)c3c(=O)c2O[C@@H]2O[C@H](CO[C@@H]3O[C@@H](C)[C@H](O)[C@@H](O)[C@H]3O)[C@@H](O)[C@H](O)[C@H]2O)ccc1O; test: hydrolysis, aglycone release by HPLC; type: biochemical, Penicillium rubens
Text: (§1) hydrolysis, aglycone release by HPLC on PcGlc

[6] = substrate: COc1ccc([C@@H]2CC(=O)c3c(O)cc(O[C@@H]4O[C@H](CO[C@@H]5O[C@@H](C)[C@H](O)[C@@H](O)[C@H]5O)[C@@H](O)[C@H](O)[C@H]4O)cc3O2)cc1O; test: hydrolysis, aglycone release by HPLC; type: biochemical, Penicillium rubens
Text: as §1

[7] = substrate: C[C@@H]1O[C@@H](OC[C@H]2O[C@@H](Oc3c(-c4ccc(O)c(O)c4)oc4cc(O)cc(O)c4c3=O)[C@H](O)[C@@H](O)[C@@H]2O)[C@H](O)[C@H](O)[C@H]1O; test: hydrolysis, aglycone release by HPLC; type: biochemical, Penicillium rubens
Text: as §1

[8] = substrate: O=c1c(O[C@@H]2O[C@H](CO)[C@@H](O)[C@H](O)[C@H]2O)c(-c2ccc(O)c(O)c2)oc2cc(O)cc(O)c12; test: hydrolysis, aglycone release by HPLC; type: biochemical, Penicillium rubens
Text: as §1

For McGlc (Mucor circinelloides), the Km [1] was 210 ± 90 µM, the kcat [1] was 69.1 ± 6 s⁻¹ and the kcat/Km [1] was 257000 M⁻¹ s⁻¹. It also gave a Km [2] of 4800 ± 100 µM, a kcat [2] of 23 ± 1.7 s⁻¹ and a kcat/Km [2] of 4800 M⁻¹ s⁻¹. The Km [3] was 120 ± 30 µM, the kcat [3] was 22.7 ± 0.5 s⁻¹ and the kcat/Km [3] was 189000 M⁻¹ s⁻¹. For the same molecule, the Km [4] was 40 ± 10 µM, the kcat [4] was 53.9 ± 1.9 s⁻¹ and the kcat/Km [4] was 1.35e+06 M⁻¹ s⁻¹.

B1: PcGlc (Penicillium rubens Wisconsin 54-1255) (protein)
chain: TPTSFHLSPNNNISHDYINWRTFHGRGVNLGGWLQQESTIDTSWWSTYSGGASDEWNLCAQLGSKCGPVLEHRYKTFITTRDIDTLASSGVTVLRIPTSYAAWVRVPGSQLYSGKQKEHIHRIATYAIEKYDMHIILDIHSLPGGINGLDIGEAVGHWGWYNNDTALKYSLDAVDSALHFIQFSSGHPQSYTLSPINEPVDNRDFSTFGTPAALSEAGASWVLKYLHAVIDRTKKVNPRIPVMCQGSFKPETYWSPHFDAGANIVFDEHHYYFQYSNSTSANLPEFLCQDAKKSAGDGKFPTFVGEWAIEASDNDLGLRGQNLQAGISAFGQFTRGSSYWTAKFSSNATIKGEGVKGNYWNYEEFVRMGYLDGQVEVPNYCQ
notes: secreted from recombinant Pichia pastoris KM71H, purified by cation exchange chromatography, glycosylated
With B1 the Km [5] was 290 ± 100 µM, the kcat [5] was 120 ± 13 s⁻¹ and the kcat/Km [5] was 414000 M⁻¹ s⁻¹. The Km [6] was 380 ± 90 µM, the kcat [6] was 9.3 ± 0.8 s⁻¹ and the kcat/Km [6] was 24500 M⁻¹ s⁻¹. It also gave a Km [7] of 210 ± 60 µM, a kcat [7] of 39.3 ± 1.2 s⁻¹ and a kcat/Km [7] of 187000 M⁻¹ s⁻¹. The Km [8] was 30 ± 6 µM, the kcat [8] was 30.3 ± 1.5 s⁻¹ and the kcat/Km [8] was 1.01e+06 M⁻¹ s⁻¹.
